Data from the nanobody polyreactivity screen of Harvey et al. (2022).

Assay: yeast display, Sf9 membrane polyspecificity reagent, FACS + sequencing; frameworks hold sequencing errors
How it was run: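 Genes from sorted yeast were amplified by colony PCR, read by MiSeq 2 × 250 sequencing and filtered on CDR length. These cells carried a synthetic nanobody library in Saccharomyces cerevisiae BJ5465 and were sorted by FACS into low and high (top ~1%) gates on anti-HA and streptavidin fluorescence. Polyreactivity is labelled according to the gate of origin.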
With “QVQLVDTGGGLVQAGGSLRLSCSASGSIFEGYAMGWYRKAPGKERELVARITSDDDSTYYADSVKGRFTISRDKEKNTVYLQMNSLKAEDTAVYYCNADYYWTSLAMDSWGQGTQVTVSS” the “polyreactivity (PSR sort gate)” value was “low polyreactivity”. For “QVQLVEAGGGLVKAGGSLRLSCAASGYIFRFYALGWYRQAPGKERELVAAISRSGSRTYYADSVKGRFTISRDNAKNTVYLQMNSLKPEDTAVYYCAAVTRGLRFDYWGQGTQVTVSS”, the “polyreactivity (PSR sort gate)” value was “high polyreactivity”. In the case of “QVQLVEAGGGLVQAGGSLRLCCAASGSTFVHYAMGWYRQAPGKERELVAAITTSGTGTFYADSVKGRFTISRENAKNNVYLQMNSLKPEETAVNYCAADIYPVWIYLLYVYWGQGTQVTVSS”, the “polyreactivity (PSR sort gate)” value is reported as “low polyreactivity”. In the case of “QVQLVEAGGGLVQAGGSLRLSCAACGSIFISYAMGWYRQAPGKERELVAAISSGGSTNYADSVKGRFTISRDNAKNTVYLQMNSLTPEDTAVYYCAADGWLWSFTGDGWWFDYWGQGTQVTVSS”, the “polyreactivity (PSR sort gate)” value is reported as “low polyreactivity”. In the case of “QVQLVEAGGGLVQAGGSLRLSCAASGITYSKYANGWYIQAPWKERELVAAISQRGGSTYYADSVKGRFTISRDNAKNTVYLQMNSLKPEDTAVYYCNAEFYWSIIAYEYWGQGTQVTVSS”, the “polyreactivity (PSR sort gate)” value is reported as “high polyreactivity”. With “QVQLVEAGGGLVQAGGSLRLSCAASGLIFWAYAMGWYRQAPGKERELVAAINWRGGSTYYADSVKGRFTISRDNAKNTVDLQMNSLKPEDTAVYYCADDSYYDEYDYLGQGTQVTVSS” the “polyreactivity (PSR sort gate)” value was “low polyreactivity”. For “QVQLVEAGGGLVQAGGSLRLSCAASGRIFGRYVMGWYRQAPGKERELVASISTRRGRTYYADSVKGRFTSSRDNAKNTVYLQMNSLKPEDTAVYYCATAYSSHYGIHRRYEYWGQGTQVTVSS”, the “polyreactivity (PSR sort gate)” value was “high polyreactivity”. With “QVQLVEAGGGLVQAGGSLRLSCAASGRTFRWYAMGWYRQAPGKERELVAAITIGGASTYYADSVKGRFTISRDNAKNTVYLQMNSLQPEYTAVNYCNAVFVGNDYWGQGTLVTVSS” the “polyreactivity (PSR sort gate)” value was “low polyreactivity”. With “QVQLVEAGGGLVQAGGSLRLSCAASGSIFGSYAMGWYRQAPGKERELVAAISGSGGRTYYADSVKGRFTISRDNAKISVYLQMNSLKPDDTAVYYCAAAYPRVTYNYGYYWGQGTQVTVSS” the “polyreactivity (PSR sort gate)” value was “high polyreactivity”. For “QVQLVEAGGGLVQAGGSLRLSCAASGSIFKSYAMGRYRQAPGKEREFVASITKSGGTTYYADSVKGRFTISRDHAKNTVYLQMNSLKPEDTAVYYCAADWYRSSWTYNYLGQGTQVTVSS”, the “polyreactivity (PSR sort gate)” value was “low polyreactivity”. With “QVQLVEAGGGLVQAGGSLRLSCAASGSTFRRYAMGWYRQAPGKERVLVAAITTRGGSTYYADSVKGRFTISRDNAKNTVYLQMNSLKPEDTAVYYCARDYSTYLRTAGDYWGQGTQVTVSS” the “polyreactivity (PSR sort gate)” value was “low polyreactivity”. In the case of “QVQLVEAGGGLVQAGGSLRLSCGASGFTFVYYAMGWYRQAPGKERELVAAISRSGGSTYYADSVKGRFTISRDNAKNTVYVQMNSLKPEDTAVYYCAARKNYGSRLSYEYWGQGTQVTVSS”, the “polyreactivity (PSR sort gate)” value is reported as “high polyreactivity”. For “QVQLVEARGGLVQAGGSLRLSCAASGSILRYTMGWYRPAPGKERELVAAITRSGTSTYYADSVKGRFTISRDNAKNTVYLQMNSLKPEDTAVYYCAAREKYASHEYDYWGQGTQVTVSS”, the “polyreactivity (PSR sort gate)” value was “high polyreactivity”. In the case of “QVQLVEPGGGIVQAGGSLRLSCAASGYIFYNYAMGWYRQAPGKERELVAAITSGGSTYYADSVKGRFTISRDNAKNTVYFQMNSLKPEDTAVYYCAAYLFPAYSRISNDYWGQGTQVTVSS”, the “polyreactivity (PSR sort gate)” value is reported as “high polyreactivity”. In the case of “QVQLVESAAGLFQAGGRLRLSCAASGRICGFYAKGWYTQAPGKQRDLVAAITVSGSSTRYADSVKGRFTISRDNAKNTVYLQMNSLKPEDTAVYYCAARIRAKYSYGYWGQVTQVTVSS”, the “polyreactivity (PSR sort gate)” value is reported as “high polyreactivity”. In the case of “QVQLVESAAGLVQAGGSLRISCAASGYTFWLYAMGWYRQAPGKEREFVAAISTSGGSTYADSVKGRFTISRDNAKNTVYLQMNSLKPEDTAVYYCNAGYLLYYDYHLFYWGQGTQVTVSS”, the “polyreactivity (PSR sort gate)” value is reported as “low polyreactivity”. In the case of “QVQLVESAAGLVQAGGSLRLSCAASGFTFSFYTMGWYRQAPAKDRELVAAISSGGTPYYADSVKGRFTISRDNAKNTVYLQMNSLKPEDTAVYYCAAYGRYASWIEFYSNYDYWGQGTQVTVSS”, the “polyreactivity (PSR sort gate)” value is reported as “low polyreactivity”.
